B1: Phosphatidylethanolamine-binding protein (PEBP) (other, mouse, UniProt P70296 2-187, looked up)
chain: AADISQWAGPLCLQEVDEPPQHALRVDYAGVTVDELGKVLTPTQVMNRPSSISWDGLDPGKLYTLVLTDPDAPSRKDPKFREWHHFLVVNMKGNDISSGTVLSDYVGSGPPSGTGLHRYVWLVYEQEQPLSCDEPILSNKSGDNRGKFKVETFRKKYNLGAPVAGTCYQAEWDDYVPKLYEQLSGK
notes: also called PEBP1_MOUSE
B2: Malate dehydrogenase; mitochondrial precursor (enzyme, mouse, UniProt P08249 25-338, looked up)
chain: AKVAVLGASGGIGQPLSLLLKNSPLVSRLTLYDIAHTPGVAADLSHIETRANVKGYLGPEQLPDCLKGCDVVVIPAGVPRKPGMTRDDLFNTNATIVATLTAACAQHCPEAMVCIIANPVNSTIPITAEVFKKHGVYNPNKIFGVTTLDIVRANTFVAELKGLDPARVNVPVIGGHAGKTIIPLISQCTPKVDFPQDQLATLTGRIQEAGTEVVKAKAGAGSATLSMAYAGARFVFSLVDAMNGKEGVVECSFVQSKETECTYFSTPLLLGKKGLEKNLGIGKITPFEEKMIAEAIPELKASIKKGEDFVKNMK
B3: Fructose-bisphosphate aldolase A (Muscle-type aldolase) (Aldolase 1) (enzyme, mouse, UniProt P05064 2-364, looked up)
chain: PHPYPALTPEQKKELSDIAHRIVAPGKGILAADESTGSIAKRLQSIGTENTEENRRFYRQLLLTADDRVNPCIGGVILFHETLYQKADDGRPFPQVIKSKGGVVGIKVDKGVVPLAGTNGETTTQGLDGLSERCAQYKKDGADFAKWRCVLKIGEHTPSALAIMENANVLARYASICQQNGIVPIVEPEILPDGDHDLKRCQYVTEKVLAAVYKALSDHHVYLEGTLLKPNMVTPGHACTQKFSNEEIAMATVTALRRTVPPAVTGVTFLSGGQSEEEASINLNAINKCPLLKPWALTFSYGRALQASALKAWGGKKENLKAAQEEYIKRALANSLACQGKYTPSGQSGAAASESLFISNHAY
B4: Dynamin-1 (enzyme, mouse, UniProt P39053 1-867, looked up)
chain: MGNRGMEDLIPLVNRLQDAFSAIGQNADLDLPQIAVVGGQSAGKSSVLENFVGRDFLPRGSGIVTRRPLVLQLVNSTTEYAEFLHCKGKKFTDFEEVRLEIEAETDRVTGTNKGISPVPINLRVYSPHVLNLTLVDLPGMTKVPVGDQPPDIEFQIRDMLMQFVTKENCLILAVSPANSDLANSDALKIAKEVDPQGQRTIGVITKLDLMDEGTDARDVLENKLLPLRRGYIGVVNRSQKDIDGKKDITAALAAERKFFLSHPSYRHLADRMGTPYLQKVLNQQLTNHIRDTLPGLRNKLQSQLLSIEKEVDEYKNFRPDDPARKTKALLQMVQQFAVDFEKRIEGSGDQIDTYELSGGARINRIFHERFPFELVKMEFDEKELRREISYAIKNIHGIRTGLFTPDMAFETIVKKQVKKIREPCLKCVDMVISELISTVRQCTKKLQQYPRLREEMERIVTTHIREREGRTKEQVMLLIDIELAYMNTNHEDFIGFANAQQRSNQMNKKKTSGNQDEILVIRKGWLTINNIGIMKGGSKEYWFVLTAENLSWYKDDEEKEKKYMLSVDNLKLRDVEKGFMSSKHIFALFNTEQRNVYKDYRQLELACETQEEVDSWKASFLRAGVYPERVGDKEKASETEENGSDSFMHSMDPQLERQVETIRNLVDSYMAIVNKTVRDLMPKTIMHLMINNTKEFIFSELLANLYSCGDQNTLMEESAEQAQRRDEMLRMYHALKEALSIIGDINTTTVSTPMPPPVDDSWLQVQSVPAGRRSPTSSPTPQRRAPAVPPARPGSRGPAPGPPPAGSALGGAPPVPSRPGASPDPFGPPPQVPSRPNRAPPGVPSLGAWRLNSPQGKHENRAGKARL
notes: also called DYN1_MOUSE; Dynamin I
B5: Aconitate hydratase; mitochondrial precursor (Citrate hydro-lyase) (enzyme, mouse, UniProt Q99KI0 28-780, looked up)
chain: QRAKVAMSHFEPSEYIRYDLLEKNINIVRKRLNRPLTLSEKIVYGHLDDPANQEIERGKTYLRLRPDRVAMQDATAQMAMLQFISSGLPKVAVPSTIHCDHLIEAQVGGEKDLRRAKDINQEVYNFLATAGAKYGVGFWRPGSGIIHQIILENYAYPGVLLIGTDSHTPNGGGLGGICIGVGGADAVDVMAGIPWELKCPKVIGVKLTGSLSGWTSPKDVILKVAGILTVKGGTGAIVEYHGPGVDSISCTGMATICNMGAEIGATTSVFPYNHRMKKYLSKTGRTDIANLAEEFKDHLVPDPGCQYDQVIEINLNELKPHINGPFTPDLAHPVADVGTVAEKEGWPLDIRVGLIGSCTNSSYEDMGRSAAVAKQALAHGLKCKSQFTITPGSEQIRATIERDGYAQILRDVGGIVLANACGPCIGQWDRKDIKKGEKNTIVTSYNRNFTGRNDANPETHAFVTSPEIVTALAIAGTLKFNPETDFLTGKDGKKFKLEAPDADELPRSDFDPGQDTYQHPPKDSSGQRVDVSPTSQRLQLLEPFDKWDGKDLEDLQILIKVKGKCTTDHISAAGPWLKFRGHLDNISNNLLIGAINIENGKANSVRNAVTQEFGPVPDTARYYKKHGIRWVVIGDENYGEGSSREHAALEPRHLGGRAIITKSFARIHETNLKKQGLLPLTFADPSDYNKIHPVDKLTIQGLKDFAPGKPLKCVIKHPNGTQETILLNHTFNETQIEWFRAGSALNRMKELQQ
notes: also called Aconitase
B6: 14-3-3 protein zeta/delta (Protein kinase C inhibitor protein-1) (KCIP-1) (SEZ-2) (other, mouse, UniProt P63101 1-245, looked up)
chain: MDKNELVQKAKLAEQAERYDDMAACMKSVTEQGAELSNEERNLLSVAYKNVVGARRSSWRVVSSIEQKTEGAEKKQQMAREYREKIETELRDICNDVLSLLEKFLIPNASQPESKVFYLKMKGDYYRYLAEVAAGDDKKGIVDQSQQAYQEAFEISKKEMQPTHPIRLGLALNFSVFYYEILNSPEKACSLAKTAFDEAIAELDTLSEESYKDSTLIMQLLRDNLTLWTSDTQGDEAEAGEGGEN
B7: 14-3-3 protein gamma (other, mouse, UniProt P61982 1-247, looked up)
chain: MVDREQLVQKARLAEQAERYDDMAAAMKNVTELNEPLSNEERNLLSVAYKNVVGARRSSWRVISSIEQKTSADGNEKKIEMVRAYREKIEKELEAVCQDVLSLLDNYLIKNCSETQYESKVFYLKMKGDYYRYLAEVATGEKRATVVESSEKAYSEAHEISKEHMQPTHPIRLGLALNYSVFYYEIQNAPEQACHLAKTAFDDAIAELDTLNEDSYKDSTLIMQLLRDNLTLWTSDQQDDDGGEGNN
notes: also called 14-3-3 γ
B8: Gamma enolase (2-phospho-D-glycerate hydrolyase) (Neural enolase) (enzyme, mouse, UniProt P17183 2-434, looked up)
chain: SIEKIWAREILDSRGNPTVEVDLYTAKGLFRAAVPSGASTGIYEALELRDGDKQRYLGKGVLKAVDHINSRIAPALISSGISVVEQEKLDNLMLELDGTENKSKFGANAILGVSLAVCKAGAAERDLPLYRHIAQLAGNSDLILPVPAFNVINGGSHAGNKLAMQEFMILPVGAESFRDAMRLGAEVYHTLKGVIKDKYGKDATNVGDEGGFAPNILENSEALELVKEAIDKAGYTEKMVIGMDVAASEFYRDGKYDLDFKSPADPSRYITGDQLGALYQDFVRNYPVVSIEDPFDQDDWAAWSKFTANVGIQIVGDDLTVTNPKRIERAVEEKACNCLLLKVNQIGSVTEAIQACKLAQENGWGVMVSHRSGETEDTFIADLVVGLCTGQIKTGAPCRSERLAKYNQLMRIEEELGDEARFAGHNFRNPSVL
notes: also called neuron-specific enolase
B9: Vesicle-fusing ATPase (EC 3.6.4.6) (Vesicular-fusion protein NSF) (N-ethylmaleimide sensitive fusion protein) (enzyme, mouse, UniProt P46460 1-744, looked up)
chain: MAGRTMQAARCPTDELSLSNCAVVNEKDFQSGQHVMVRTSPNHKYIFTLRTHPSVVPGCIAFSLPQRKWAGLSIGQDIEVALYSFDKAKQCIGTMTIEIDFLQKKNIDSNPYDTDKMAAEFIQQFNNQAFSVGQQLVFSFNDKLFGLLVKDIEAMDPSILKGEPASGKRQKIEVGLVVGNSQVAFEKAENSSLNLIGKAKTKENRQSIINPDWNFEKMGIGGLDKEFSDIFRRAFASRVFPPEIVEQMGCKHVKGILLYGPPGCGKTLLARQIGKMLNAREPKVVNGPEILNKYVGESEANIRKLFADAEEEQRRLGANSGLHIIIFDEIDAICKQRGSMAGSTGVHDTVVNQLLSKIDGVEQLNNILVIGMTNRPDLIDEALLRPGRLEVKMEIGLPDEKGRLQILHIHTARMRGHQLLSADVDIKELAVETKNFSGAELEGLVRAAQSTAMNRHIKASTKVEVDMEKAESLQVTRGDFLASLENDIKPAFGTNQEDYASYIMNGIIKWGDPVTRVLDDGELLVQQTKNSDRTPLVSVLLEGPPHSGKTALAAKIAEESNFPFIKICSPDKMIGFSETAKCQAMKKIFDDAYKSQLSCVVVDDIERLLDYVPIGPRFSNLVLQALLVLLKKAPPQGRKLLIIGTTSRKDVLQEMEMLNAFSTTIHVPNIATGEQLLEALELLGNFKDKERTTIAQQVKGKKVWIGIKKLLMLIEMSLQMDPEYRVRKFLALMREEGASPLDFD
B10: 14-3-3 protein epsilon (14-3-3E) (other, mouse, UniProt P62259 1-255, looked up)
chain: MDDREDLVYQAKLAEQAERYDEMVESMKKVAGMDVELTVEERNLLSVAYKNVIGARRASWRIISSIEQKEENKGGEDKLKMIREYRQMVETELKLICCDILDVLDKHLIPAANTGESKVFYYKMKGDYHRYLAEFATGNDRKEAAENSLVAYKAASDIAMTELPPTHPIRLGLALNFSVFYYEILNSPDRACRLAKAAFDDAIAELDTLSEESYKDSTLIMQLLRDNLTLWTSDMQGDGEEQNKEALQDVEDENQ
B11: Clathrin coat assembly protein AP180 (Clathrin coat-associated protein AP180) (91 kDa synaptosomal-associated protein) (other, mouse, UniProt Q61548 1-901, looked up)
chain: MSGQTLTDRIAAAQYSVTGSAVARAVCKATTHEVMGPKKKHLDYLIQATNETNVNIPQMADTLFERATNSSWVVVFKALVTTHHLMVHGNERFIQYLASRNTLFNLSNFLDKSGSHGYDMSTFIRRYSRYLNEKAFSYRQMAFDFARVKKGADGVMRTMVPEKLLKSMPILQGQIDALLEFDVHPNELTNGVINAAFMLLFKDLIKLFACYNDGVINLLEKFFEMKKGQCKDALEIYKRFLTRMTRVSEFLKVAEQVGIDKGDIPDLTQAPSSLMETLEQHLNTLEGKKPGNNEGSGAPSPLSKSSPATTVTSPNSTPAKTIDTSPPVDIFATASAAAPVSSAKPSSDLLDLQPDFSGAAAGAAAPVVPPSGGATAWGDLLGEDSLAALSSVPCEAPISDPFAPEPSPPTTTTEPASASASTTTAVTAVTTEVDLFGDAFAASPGEAPAASEGATAPATPAPVAAALDACSGNDPFAPSEGSAEAAPELDLFAMKPPETSAPVVTPTASTAPPVPATAPSPAPTAVAATAATTTAAAAATTTATTSAAAATTAAAPPALDIFGDLFDSAPEVAAAPKPDAAPSIDLFGTDAFSSPPRGASPVPESSLTADLLSVDAFAAPSPASTASPAKAESSGVIDLFGDAFGSGASETQPAPQAVSSSSASADLLAGFGGSFMAPSTTPVTPAQNNLLQPSFEAAFGTTPSTSSSSSFDPSVFDGLGDLLMPTMAPSGQPAPVSMVPPSPAMAASKGLGSDLDSSLASLVGNLGISGTTSKKGDLQWNAGEKKLTGGANWQPKVTPATWSAGVPPQGTVPPTSSVPPGAGAPSVGQPGAGFGMPPSGTGMTMMSQQPVMFAQPMMRPPFGAAAVPGTQLSPSPTPATQSPKKPPAKDPLADLNIKDFL
notes: also called AP180_MOUSE; Clathrin coat assembly protein Aβ180

Legend:
APP-TAP-AICD [1] = molecular target: T1, APP-TAP-AICD (human, UniProt P05067 18-695); experiment: streptavidin purification of APP-TAP-AICD from brain homogenate; LTQ-FT semiquantitative method, transgenic mouse 75 vs control mouse 72
APP-TAP-AICD [2] = molecular target: T1, APP-TAP-AICD; experiment: streptavidin purification of APP-TAP-AICD from brain homogenate; iTRAQ 116/114, transgenic mouse 75 vs control mouse 72; MALDI-TOF/TOF;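 also: relative protein abundance in the transgenic versus control pull-down, limited to proteins with high quality scores and above-average enrichment, without full normalization across the whole measurement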
From the text: Shown are all proteins that have high quality scores and are enriched above average in the m75 sample. Purified bait protein is given underlined. Other already known interaction partners of AICD or putatively biologically relevant proteins are given in bold. As full normalization over the entire measurement was not possible through the GPS explorer software suite, this conservative estimate had to be taken for determining the enriched vs. the non-enriched proteins. […] Ranking is in order of abundance ratio.

Row | Binder | probability that this protein is enriched (APP-TAP-AICD [1]) | iTRAQ ratio (APP-TAP-AICD [2])
1 | B1 | 1 | 4.87
2 | B2 | 0.86 | 4.71
3 | B3 | 1 | 4.61
4 | B4 | 0.82 | 4.57
5 | B5 | 1 | 4.53
6 | B6 | 0.83 | 4.51
7 | B7 | 0.83 | 4.28
8 | B8 | 1 | 4.08
9 | B9 | 0.86 | 4
10 | B10 | 1 | 3.94
11 | B11 | 0.85 | 

Reference: patent publication US20100169988A1 (published 2010)
